This is an account of results in a protein production outcome set (Wang et al. 2014).

This data set can be described thus: label from the status in PepcDB records.
As to “MGGPAYDCLTNPLGAVRFSFVNALSSGYDPASSVGKDWGVVDLFRHYFSDESAISQVPILDSSSIKWVQPKTLVRFRGMIQDMLGNEFYAGAYKDDSTWRTNKYSDVSQFPEGSSTEIQVWERRLLYCVPVPGKNQWTECSSQELKNRFLDLTGQNREKRVRVDEEMTDSMDSSKVGEATSSASESQVPQTSGIPPATSADSLPCLVKIYDSPESDLKLNDVVEFLGVLTFDPIVMMDTDTLDENSDALSEAESVQMPSGKQPKSPQIFKEIRESLMKYLTGLLGNDHIAAQFLLLHLLSKVHGRVDNVAVGKLSLNLIHLNKESMSIFGTQLSGALKSLLPFTQSIPLTIEYLNTASFGPKKDYGINRLMPGVLQIADGTHLILDETELQPGTLNSVGVENANLLKNLLECQKVEYDFQYYKMEMATDVQMLIFSEGKSNIMPADLVLPLQPSQVNSLEVITPETAETWRCYLATCKSLSHSIGQELQQVVENDLVAARQTDRSLGSQDLSRLLTMARMMSVSYGETTLSLEHWQMVLELERLRKERLK”, the protein production result is recorded as “failed”. The result for “MGGSLRVAVLGAPGVGKTAIIRQFLFGDYPERHRPTDGPRLYRPAVLLDGAVYDLSIRDGDVAGPGSSPGGPEEWPDAKDWSLQDTDAFVLVYDICSPDSFDYVKALRQRIAETR” reads “failed”. The result for “MGHFDTPSLSRDAALLPDTGEPGFGVYVHWPFCAAKCPYCDFNSHVRHQPVDQERFAAAFLKEMAAVRAMSGPKTVTSIFLGGGTPSLMKPETVSAILDGIARHWHVPAGIEITMEANPSSVEAERFRGYRAAGVNRVSLGVQALNDRDLKFLGRLHDVADALKAIRLAREIFPRMSFDLIYARPDQTVDEWEKELKEAISYAVDHLSLYQLTIEEGTPFFGLHKSGKLIVPDGEQSALLYEATQEITAREGMPAYEVSNHARPGAESRHNLTYWRYGDYAGIGPGAHGRLTRGHEKLATATERKPEAWLEMVERDGHGILDEERLGFEEQSDELLLMGLRLREGVDLARWQQLSGRELDPKREEFLLEHKFIERIGNSRLRCTSAGMLILDSVVADLAC” reads “failed”; that for “MGHHHHHHENLYFQSHMDSKRAALESGDGPDAKRLDTTDDQDKEASGGDGSQVMLAKHVAPYTGHGCTPPMESYLFEPTPAGSQLLPWKTSVDLDNDAELEKPTSDKKPDTAKLSRRELAKMRREHTLRALALERELTNKPGQTPASEVLLVRFPDPEITAPMLAG”, “not failed”. With “MGHHHHHHENLYFQSHMKFLLAFSLLIPSVVFASSSKFQQVEQDVKAIEVSLSARIGVSVLDTQNGEYWDYNGNQRFPLTSTFKTIACAKLLYDAEQGKVNPNSTVEIKKADLVTYSPVIEKQVGQAITLDDACFATMTTSDNTAANIILSAVGGPKGVTDFLRQIGDKETRLDRIEPDLNEGKLGDLRDTTTPKAIASTLNKFLFGSALSEMNQKKLESWMVNNQVTGNLLRSVLPAGWNIADRSGAGGFGARSITAVVWSEHQAPIIVSIYLAQTQASMEERNDAIVKIGHSIFDVYTSQSR”, the protein production entry is reported as “not failed”. The result for “MGHHHHHHSHDPFAHLPKSTFVLDEFKRKYSNEDTLSVALPYFWEHFDKDGWSLWYSEYRFPEELTQTFMSCNLITGMFQRLDKLRKNAFASVILFGTNNSSSISGVWVFRGQELAFPLSPDWQVDYESYTWRKLDPGSEETQTLVREYFSWEGAFQHVGKAFNQGKIFK” reads “not failed”; that for “MGHHHHHHSHIEETTMTTQTPAPIQAPSAILPLPGQSVERLCVDPRHRQGPVNLLSDPEQGVEVTGQYEREKAGFSWIEVTFKNPLVWVHASPEHVVVTRNRRSSAYKWKETLFSVMPGLKMTMDKTGLLLLSDPDKVTIGLLFWDGRGEGLRLLLRDTDRFSSHVGGTLGQFYQEVLWGSPAASD”, “failed”. As for “MGHHHHHHSHLYPGSVYGRLIDLCQPTQKKYQIAVTKVLGKNMDAIIVDSEKTGRDCIQYIKEQRGEPETFLPLDYLEVKPTDEKLRELKGAKLVIDVIRYEPPHIKKALQYACGNALVCDNVEDARRIAFGGHQRHKTVALDGTLFQKSGVISG”, the protein production entry is recorded as “not failed”.

In the case of “MGHHHHHHSHMAFPSDATAEQGPILTKHGKNPVMELNEKRRGLKYELISETGGSHDKRFVMEVEVDGQKFQGAGSNKKVAKAYAALAALEKLFPDTPLALDANK”, the protein production result was “failed”.

“MGHHHHHHSHMAPWRKADKERHGVAIYNFQGSGAPQLSLQIGDVVRIQETCGDWYRGYLIKHKMLQGIFPKSFIHIK”: the protein production entry is given as “failed”.

For “MGHHHHHHSHMASLTVKAYLLGKEDAAREIRRFSFCCSPEPEAEAEAAAGPGPCERLLSRVAALFPALRPGGFQAHYRDEDGDLVAFSSDEELTMAMSYVKDDIFRIYIKEKKECRRDHRPPCAQEAPRNMVHP”, the protein production result is recorded as “failed”. Under “MGHHHHHHSHMDVTIQHPWFKRTLGPFYPSRLFDQFFGEGLFEYDLLPFLSSTISPYYRQSLFRTVLDSGISEVRSDRDKFVIFLDVKHFSPEDLTVKVQDDFVEIHGKHNERQDDHGYISREFHRRYRLPSNVDQSALSCSLSADGMLTFCGPKIQTGLDATHAER” stands “failed”. Under “MGHHHHHHSHMGKITFYEDRAFQGRSYETTTDCPNLQPYFSRCNSIRVESGCWMLYERPNYQGQQYLLRRGEYPDYQQWMGLSDSIRSCCLIPQTVSHRLRLYEREDHKGLMMELSEDCPSIQDRFHLSEIRSLHVLEGCWVLYELPNYRGRQYLLRPQEYRRCQDWGAMDAKAGSLRRVVDLY” stands “not failed”. The result for “MGHHHHHHSHMGRGKGPAAEEPLSLLDDMNHCYSRLRELVPGVPRGTQLSQVEILQRVIDYILDLQVV” reads “not failed”; that for “MGHHHHHHSHMIQYIPQRPPIVMISTLVSAEKNVTETELEIPAHGLFVKDGVLHEPGLIENVAQTAAAGVGYACTLTSQPVPVGFIGAVKNLEIDYLPKVGDVLETRVEVLEEIFDMTLIKGESFVKGKRVLTCEMKIVLKK”, “failed”; that for “MGHHHHHHSHMLITVYCVRRDLSEVTFSLQVSPDFELRNFKVLCEAESRVPVEEIQIIHMERLLIEDHCSLGSYGLKDGDIVVLLQKDNVGPRAPGRAPNQPRVDFSGIAVPGTSSSRPQHPGQQQQRTPAAQRSQGLASGEKVAGLQGLGSPALIRSMLLSNPHDLSLLKERNPPLAEALLSGSLETFSQVLMEQQREKALREQERLRLYTADPLDREAQAKIEEEIRQQNIEENMNIAIEEAPESFGQVTMLYINCKVNGHPLKAFVDSGAQMTIMSQACAERCNIMRLVDRRWAGVAKGVGTQRIIGRVHLAQIQIEGDFLQCSFSILEDQPMDMLLGLDMLRRHQCSIDLKKNVLVIGTTGTQTYFLPEGELPLCSRMVSGQDESSDKEITHSVMDSGRKEH”, “failed”.

For the sequence “MGHHHHHHSHMNSCILQATVVEAPQLRYTQDNQTPVAEMVVQFPGLSSKDAPARLKVVGWGAVAQELQDRCRLNDEVVLEGRLRINSLLKPDGNREKQTELTVTRVHHLTLDSATGI”, the protein production result is on record as “failed”. For “MGHHHHHHSHMPDHGDWTYEEQFKQLYELDGDPKRKEFLDDLFSFMQKRGTPVNRIPIMAKQVLDLFMLYVLVTEKGGLVEVINKKLWREITKGLNLPTSITSAAFTLRTQYMKYLYPYECEKRGLSNPNELQAAIDSNRREGRR”, the protein production entry is “not failed”. For “MGHHHHHHSHMSEYLAAADYLPHSAPMVLVDEVIHVDDEHAHCRVAVSREGILAPFLNAQGHLPAWFGIEIIAQTIGVWSGWHGRQSLGLQEKPRPGMLLGGRGYHCQQAIFPAGSLLDVTVMLVMRDEKIGSFEGEIAIDGEKYASGRLNTYQPDDRELNILLEQGKPL”, the protein production result is recorded as “failed”. Regarding “MGHHHHHHSHMSHYRPELPAPRTDWSLSDVDQWDTAALADGIKSFLLALPAPLVTPEASAEARRALREAAGPVGPALEPPTLPLHRALTLRFLLQHLGRVARRAPALGPAVRALGATF”, the protein production entry is recorded as “failed”. Under “MGHHHHHHSHMTDPSKLAVAVVCSSNMNRSMEAHNFLAKKGFNVRSYGTGERVKLPGMAFDKPNVYEFGTKYEDIYRDLESKDKEFYTQNGLLHMLDRNRRIKKCPERFQDTKEQFDIIVTVEERVYDLVVMHMESMESVDNRPVHVLNVDVVDNAEDALMGAFVITDMINMMAKSTDLDNDIDELIQEFEERRKRVILHSVLFY” stands “not failed”; under “MGHHHHHHSHMTLRCLEPSGNGGEGTRSQWGTAGSAEEPSPQAARLAKALRELGQTGWYWGSMTVNEAKEKLKEAPEGTFLIRDSSHSDYLLTISVKTSAGPTNLRIEYQDGKFRLDSIICVKSKLKQFDSVVHLIDYYVQMCKDKRTGPEAPRNGTVHLYLTKPLYTSAPSLQHLCRLTINKCTGAIWGLPLPTRLKDYLEEYKFQV”, “failed”. The result for “MGHHHHHHSHMVASWELRVEGRLLEDSALSKYDATKQKRKFSSFFKSLVIELDKDLYGPDNHLVEWHRTATTQETDGFQVKRPGDVNVRCTVLLMLDYQPPQFKLDPRLARLLGIHTQTRPVIIQALWQYIKTHKLQDPHEREFVI” reads “failed”. The result for “MGHHHHHHSHPQLLHFVDQYREQLIARVTSVEVVLDKLHGQVLSQEQYERVLAENTRPSQMRKLFSLSQSWDRKCKDGLYQALKETHPHLIMELWEKGSKKGLLPLSS” reads “not failed”; that for “MGHHHHHHSHSWDFGAFQSSSATDSSMEEIFQHLMAYHQEASKRISSHIPLIIQFFMLQTYGQQLQKAMLQLLQDKDTYSWLLKERSDTSDKRKFLKERLARLTQARRRLAQFPG”, “failed”; that for “MGHNAINRLQLVATLAEREVMRYTPAGVPIVNCLLSYSGQAMEAQAARQVEFSIEALGAGKMASVLDRIAPGTVLECVGFLARKHRSSKALVFHISGCNVFVKDLEHHHHHH”, “not failed”. On to “MGHQSSWMKQTVIDSVVQSSKVGVFSMFSMDYKAPRKYSHGRNFGVARQQDFAADIVTRRPYAPYDNGMKKGPNKLSRNLVWTSKEYKSPEGNRPRQNAANGSAKPQVIGTGHRVSNQPRKNAVYGPRSSSLSDTRGCGPRLNGSPKKSVCNFWKDGNCKKGEKCQFLHSWSCFPGLAMVAALEGHKNDIKGIALPQGSDKLFSVSGDGTLLIWDCNSGQCVRSINLQAEAGSLISEGPWVFLGLPNAVKAFNVQNSKDVHLEGVVGQVHAMTAANGMLFAGTSSGSILVWKATDSESDPFKYLTSLEGHHSGEVTCFVVGGEVLYSGSVDKTIKVWDLNTLQCRMTLKQHIGTVTSLLCWDKCLISSSLDGTIKLWACSENESLKVVQTRKQELSVHTLCGMHDAEAKPIMFCSYQNGAVGIFDLPSFEERGKMFSTQTICTLTIGPGGLLFSGDKSGNLRVWSLASGTKV”, for which the protein production entry is listed as “failed”. Take “MGIDELYKKEFGIVAGVDEAGRGCLAGPVVAAAVVLEKEIEGINDSKQLSPAKRERLLDEIMEKAAVGIGIASPEEIDLYNIFNATKLAMNRALENLSVKPSFVLVDGKGIELSVPGTCLVKGDQKSKLIGAASIVAKVFRDRLMSEFHRMYPQFSFHKHKGYATKEHLNEIRKNGVLPIHRLSFEPVLELLTDDLLREFFEKGLISENRFERILNLLGARKSVVFRKERTNHNLPLF”: the protein production result was “not failed”. For “MGIELVMENAHWFWLSLGGLLLAAEMLGGSGYLLWSGLSAVLVGLLTWIMPLGWPWQGTIFAILTIVTALLWWYWLRKRTLSRPPSTLNQRGQQLVGLRATVSESVTNGFGRVNIGDSSWRVKSEQDLPAGTHVEVIAVDGITLHVRSIER”, the protein production result is “failed”. Under “MGIHQYFQSLSDLENIYRCPGKFKYQEHSVAEHSYKVTSIAQFFGAVEEDAGNEVNWRALYEKALNHDYSELFIGDIKTPVKYATTELREMLSEVEESMTKNFISREIPATFQPIYRHLLKEGKDSTLEGKILAISDKVDLLYESFGEIQKGNPENIFVEIYSEALATIYEYREMASVKYFLKEILPDMLAEKGIEKTELPQLTTEITTKALRDE” stands “not failed”.
